Numbering of substitutions follows the chain as printed. In names and notes the source's numbering stands.
Experiments:
SfiI D79A [1] = biological target: T1, SfiI D79A (UniProt O52512 1-269, D79A); test: competition
T1 sequence: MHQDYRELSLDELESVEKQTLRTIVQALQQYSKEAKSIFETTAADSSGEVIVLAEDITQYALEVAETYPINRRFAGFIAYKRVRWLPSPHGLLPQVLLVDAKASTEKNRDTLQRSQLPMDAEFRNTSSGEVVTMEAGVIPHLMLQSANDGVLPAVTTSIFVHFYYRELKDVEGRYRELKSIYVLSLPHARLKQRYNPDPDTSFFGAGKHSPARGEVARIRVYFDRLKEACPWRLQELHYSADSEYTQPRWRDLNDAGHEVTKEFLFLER

SfiI D100A [2] = biological target: T2, SfiI D100A (UniProt O52512 1-269, D100A); test: competition
T2 sequence: T1 sequence with A79D, D100A

SfiI endonuclease wt [3] = biological target: T3, SfiI endonuclease wt (UniProt O52512 1-269); test: competition
T3 sequence: T1 sequence with A79D

AUC = biological target: the molecule itself; test: AUC
SfiI D79A [4] = biological target: T1, SfiI D79A; test: EMSA
SfiI endonuclease wt [5] = biological target: T3, SfiI endonuclease wt; test: EMSA
SfiI D100A [6] = biological target: T2, SfiI D100A; test: EMSA

B1: C-21 (dsDNA)
DNA 1: ATGTGGCCAACAAGGCCTATT
DNA 2: AATAGGCCTTGTTGGCCACAT
B1: binds (SfiI D79A [1]); binds (SfiI D100A [2]); binds (SfiI endonuclease wt [3]).

B2: SfiI restriction endonuclease D79A mutant (enzyme)
chain: T1 sequence
B2 was tested, and the “stoichiometry N” value (AUC) was 4.

B3: SfiI restriction endonuclease D100A mutant (enzyme)
chain: T1 sequence with A79D, D100A
For B3, the “stoichiometry N” value (AUC) was 4.

B4: HEX-35 (dsDNA)
DNA 1: TCGATCCATGTGGCCAACAAGGCCTATTTGTCGAT
DNA 2: ATCGACAAATAGGCCTTGTTGGCCACATGGATCGA
In the case of B4, the Kd (SfiI D79A [4]) is reported as under 10 nM, the Kd (SfiI endonuclease wt [5]) is reported as under 10 nM and the Kd (SfiI D100A [6]) is reported as under 10 nM.

Reference: article PMC2760798 (Nucleic Acids Research, 2009)
